Data reported in patent US20240261333A1 (published 2024).

Tests used:
Experiment in all cases: co-IP with anti-FLAG, N-FLAG B3GNT2, mass spectrometry
GEMIN4 = target: T1, GEMIN4 (human, UniProt P57678 1-1058)
T1 construct: also called NP_056536.2 (+2)
T1 sequence (looked up): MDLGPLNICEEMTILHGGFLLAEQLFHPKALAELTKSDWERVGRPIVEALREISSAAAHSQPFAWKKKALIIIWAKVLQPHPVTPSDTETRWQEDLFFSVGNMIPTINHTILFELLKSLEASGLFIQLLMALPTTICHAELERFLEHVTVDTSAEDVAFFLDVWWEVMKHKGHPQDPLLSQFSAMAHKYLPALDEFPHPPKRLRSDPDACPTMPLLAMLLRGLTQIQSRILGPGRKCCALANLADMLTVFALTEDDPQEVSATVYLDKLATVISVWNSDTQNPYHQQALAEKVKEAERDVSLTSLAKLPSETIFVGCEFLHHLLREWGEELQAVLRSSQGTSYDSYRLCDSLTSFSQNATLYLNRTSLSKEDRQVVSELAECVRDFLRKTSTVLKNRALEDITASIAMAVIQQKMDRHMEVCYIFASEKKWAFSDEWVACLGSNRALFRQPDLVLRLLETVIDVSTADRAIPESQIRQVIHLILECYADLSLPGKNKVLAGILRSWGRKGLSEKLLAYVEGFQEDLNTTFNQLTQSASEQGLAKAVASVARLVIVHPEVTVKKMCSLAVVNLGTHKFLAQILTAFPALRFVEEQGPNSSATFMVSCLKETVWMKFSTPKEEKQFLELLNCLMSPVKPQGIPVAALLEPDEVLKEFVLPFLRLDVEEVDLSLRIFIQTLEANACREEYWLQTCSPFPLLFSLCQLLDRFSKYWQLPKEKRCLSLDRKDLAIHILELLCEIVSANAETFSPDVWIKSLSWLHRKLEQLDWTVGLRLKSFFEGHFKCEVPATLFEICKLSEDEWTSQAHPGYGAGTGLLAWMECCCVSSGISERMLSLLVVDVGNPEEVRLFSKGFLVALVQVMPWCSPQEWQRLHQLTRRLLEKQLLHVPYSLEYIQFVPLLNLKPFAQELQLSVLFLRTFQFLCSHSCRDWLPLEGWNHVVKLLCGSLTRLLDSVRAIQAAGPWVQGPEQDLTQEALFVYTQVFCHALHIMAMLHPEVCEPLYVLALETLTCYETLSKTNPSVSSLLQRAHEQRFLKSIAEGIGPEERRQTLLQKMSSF

PKM = target: T2, PKM (human, UniProt P14618 2-531, limits assumed)
T2 construct: also called NP_001193725.1 (+3)
T2 sequence (P14618 2-531 limits assumed): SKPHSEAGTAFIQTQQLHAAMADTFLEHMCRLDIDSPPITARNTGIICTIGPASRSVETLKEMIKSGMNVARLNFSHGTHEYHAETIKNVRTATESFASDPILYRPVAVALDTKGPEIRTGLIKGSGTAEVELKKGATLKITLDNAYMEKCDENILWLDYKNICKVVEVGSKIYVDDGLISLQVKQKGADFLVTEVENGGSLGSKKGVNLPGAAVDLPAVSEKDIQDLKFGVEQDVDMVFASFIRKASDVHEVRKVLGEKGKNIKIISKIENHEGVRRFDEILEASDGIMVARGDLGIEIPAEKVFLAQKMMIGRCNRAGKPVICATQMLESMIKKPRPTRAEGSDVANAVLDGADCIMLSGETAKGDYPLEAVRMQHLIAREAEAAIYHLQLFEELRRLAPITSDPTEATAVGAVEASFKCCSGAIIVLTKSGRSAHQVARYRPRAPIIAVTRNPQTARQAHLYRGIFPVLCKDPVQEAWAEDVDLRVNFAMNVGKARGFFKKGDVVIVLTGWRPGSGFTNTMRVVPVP

TBL2 = target: T3, TBL2 (human, UniProt Q9Y4P3 1-447)
T3 construct: also called NP_036585.1
T3 sequence (looked up): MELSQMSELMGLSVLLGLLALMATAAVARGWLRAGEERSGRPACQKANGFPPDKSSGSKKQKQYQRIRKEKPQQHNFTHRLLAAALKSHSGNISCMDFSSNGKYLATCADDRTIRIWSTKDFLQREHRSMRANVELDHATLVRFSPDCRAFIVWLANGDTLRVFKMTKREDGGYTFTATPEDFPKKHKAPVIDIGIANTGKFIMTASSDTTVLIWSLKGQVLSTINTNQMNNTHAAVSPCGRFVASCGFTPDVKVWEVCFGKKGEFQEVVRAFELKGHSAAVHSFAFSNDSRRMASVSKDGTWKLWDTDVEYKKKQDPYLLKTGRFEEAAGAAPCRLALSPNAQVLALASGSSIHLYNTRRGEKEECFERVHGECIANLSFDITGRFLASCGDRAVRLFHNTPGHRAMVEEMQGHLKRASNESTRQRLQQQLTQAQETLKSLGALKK

DDX3X = target: T4, DDX3X (human, UniProt O00571 2-662)
T4 construct: also called NP_001180345.1 (+1)
T4 sequence (O00571 2-662 limits assumed): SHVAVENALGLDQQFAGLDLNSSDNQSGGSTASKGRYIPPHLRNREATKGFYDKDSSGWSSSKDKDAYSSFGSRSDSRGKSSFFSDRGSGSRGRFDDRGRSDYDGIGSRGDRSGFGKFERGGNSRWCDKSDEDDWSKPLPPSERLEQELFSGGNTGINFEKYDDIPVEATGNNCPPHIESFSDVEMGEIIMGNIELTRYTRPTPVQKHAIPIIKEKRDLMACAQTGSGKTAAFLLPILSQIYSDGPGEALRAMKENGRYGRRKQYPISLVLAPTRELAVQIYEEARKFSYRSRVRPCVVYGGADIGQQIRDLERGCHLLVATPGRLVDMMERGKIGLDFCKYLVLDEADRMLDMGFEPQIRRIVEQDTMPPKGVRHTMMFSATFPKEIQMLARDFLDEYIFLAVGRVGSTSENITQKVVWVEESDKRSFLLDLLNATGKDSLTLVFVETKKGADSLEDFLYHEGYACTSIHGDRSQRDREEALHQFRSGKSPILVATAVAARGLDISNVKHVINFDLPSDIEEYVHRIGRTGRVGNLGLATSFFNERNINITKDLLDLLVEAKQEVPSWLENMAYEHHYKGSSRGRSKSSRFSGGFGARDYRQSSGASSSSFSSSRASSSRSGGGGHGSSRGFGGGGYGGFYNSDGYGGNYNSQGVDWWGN

B1: N-terminal FLAG tagged B3GNT2 (enzyme, human, UniProt Q9NY97 1-397, looked up)
chain: MSVGRRRIKLLGILMMANVFIYFIMEVSKSSSQEKNGKGEVIIPKEKFWKISTPPEAYWNREQEKLNRQYNPILSMLTNQTGEAGRLSNISHLNYCEPDLRVTSVVTGFNNLPDRFKDFLLYLRCRNYSLLIDQPDKCAKKPFLLLAIKSLTPHFARRQAIRESWGQESNAGNQTVVRVFLLGQTPPEDNHPDLSDMLKFESEKHQDILMWNYRDTFFNLSLKEVLFLRWVSTSCPDTEFVFKGDDDVFVNTHHILNYLNSLSKTKAKDLFIGDVIHNAGPHRDKKLKYYIPEVVYSGLYPPYAGGGGFLYSGHLALRLYHITDQVHLYPIDDVYTGMCLQKLGLVPEKHKGFRTFDIEEKNKNNICSYVDLMLVHSRKPQEMIDIWSQLQSAHLKC
notes: FLAG-tagged ORF overexpressed in cells; pulled down from lysate with mouse anti-FLAG; also called N-FLAG B3GNT2; N-term FLAG; not shown: N-terminal FLAG tag
GEMIN4
  co-IP mass spectrometry count: 0
PKM
  co-IP mass spectrometry count: 3
TBL2
  co-IP mass spectrometry count: 0

B2: N-terminal FLAG tagged B3GNT2 (enzyme, human, UniProt Q9NY97 1-397, looked up)
chain: B1 chain
notes: FLAG-tagged ORF overexpressed in A375 cells; pulled down from the lysate with mouse anti-FLAG; also called N-FLAG B3GNT2; N-term FLAG; not shown: N-terminal FLAG tag
DDX3X
  co-IP/MS count, N-term FLAG: 18
